This is an account of results in PMC5814282, “Biophysical studies and NMR structure of YAP2 WW domain - LATS1 PPxY motif complexes reveal the basis of their interaction” (Oncotarget, 2018).

Test [1] concerns the target T1, YAP2 WW1 domain (aa 163-206) (human, UniProt P46937-2 163-206).
T1 construct: YES-associated protein, isoform YAP2 (YAP1-2, two WW domains), human, first WW domain, aa 163-206; cloned into pGEX-6P-1
Put plainly: ITC; protein 20 to 70 uM titrated against peptide 0.5 to 1.8 mM, 25°C, 20 mM Tris-HCl pH 7.0, 100 mM NaCl; single ligand binding site model. The following applies: both partners purified. (ITC needs no label: the signal is the heat of the interaction.)

Test [2] addresses T2, LATS1 PY12 (both PPxY motifs; aa 361-567) (UniProt O95835 361-567).
T2 construct: LATS1, region with both PPxY motifs, aa 361-567; cloned into pACYC; 15N-labelled in one of the NMR titrations; source: E. coli BL21 (DE3), purified
T2 sequence (looked up): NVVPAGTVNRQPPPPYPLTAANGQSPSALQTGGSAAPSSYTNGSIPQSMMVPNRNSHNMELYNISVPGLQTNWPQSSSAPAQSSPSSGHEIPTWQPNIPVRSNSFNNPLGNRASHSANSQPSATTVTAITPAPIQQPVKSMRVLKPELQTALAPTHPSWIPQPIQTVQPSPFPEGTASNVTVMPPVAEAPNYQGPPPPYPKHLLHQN
Put plainly: ITC; WW12 vs PY12; 20 mM Tris-HCl pH 7.0, 100 mM NaCl, 3% glycerol, 2 mM DTT, 2 mM EDTA; single ligand binding site model. The note with it: both partners purified.

B1: LATS1 PPxY1 peptide mutant R to A (peptide)
peptide: NAQPPPPYPLTA
notes: also called PPxY1m; PPxY1R→A; source: synthetic peptide, bought: GL BioChem
For B1, the Kd in test [1] is 14 µM.

B2: YAP2 WW12 (both WW domains; aa 163-266) (domain or fragment, human, UniProt P46937-2 163-266, looked up)
chain: SSFEIPDDVPLPAGWEMAKTSSGQRYFLNHIDQTTTWQDPRKAMLSQMNVTAPTSPPVQQNMMNSASGPLPDGWEQAMTQDGEIYYINHKNKTTSWLDPRLDPR
notes: YES-associated protein, isoform YAP2 (YAP1-2), human, both WW domains, aa 163-266; cloned into pGEX-6P-1; 15N-labelled in one of the NMR titrations; source: also co-expressed with PY12 and co-purified
On to B2, for which the Kd in test [2] was 9.6 µM.

B3: LATS1 PPxY2 peptide mutant Q to A (peptide)
peptide: NYAGPPPPYPKH
notes: LATS1 PPxY2 peptide aa 551-562 with the Q at P1-3 changed to A; also called PPxY2m; PPxY2 Q→A; source: synthetic peptide, bought: GL BioChem
On to B3, for which, in test [1], the Kd was 4.4 µM.

As a reminder, the Kd is the free concentration of one partner at which half of the binding sites on the other are occupied at equilibrium, for simple one-to-one binding. High values mean weaker binding, low ones tighter binding.
